Test results as given in PMC5241105 (Science (New York, N.Y.), 2016).

Target: thermolysin cleaved Ebola virus GP (GPTHL) (Ebola virus (EBOV), UniProt Q05320)
Assay: BLI

| Binder | binding result | Kd [nM] |
| --- | --- | --- |
| Fab100 (antigen-binding fragment of mAb100) (Fab, V domains shown) VH: QVQLQESGPGLVKPSDTLSLTCTVSGGSLSSFYWSWIRQPPGKGLEWIGYIYYSGSPNYSPSLESRVTMSVDTTRNQISLKLDSVTAADTAVYYCVRASRSYYWGSYRPTAFDSWGQGTLVTVSS VL: YELTQPLSVSVSPGQTAIFTCSGDNLGDKYVCWFQQRPGQSPMLLIYQDNKRPSGIPERFSGSNSGNTATLTISGTQSTDEADYYCQTWDSTVVFGGGTKLTVL | binds | – |
| Fab114 (antigen-binding fragment of mAb114) (Fab, V domains shown) VH: EVQLVESGGGLIQPGGSLRLSCAASGFALRMYDMHWVRQTIDKRLEWVSAVGPSGDTYYADSVKGRFAVSRENAKNSLSLQMNSLTAGDTAIYYCVRSDRGVAGLFDSWGQGILVTVSS VL: DIQMTQSPSSLSASVGDRITITCRASQAFDNYVAWYQQRPGKVPKLLISAASALHAGVPSRFSGSGSGTHFTLTISSLQPEDVATYYCQNYNSAPLTFGGGTKVEIK | – | 8 |
